Source: paper PMC10423226, “Identification of a drug binding pocket in TMEM16F calcium-activated ion channel and lipid scramblase” (Nature Communications, 2023)

Biological target: the molecule itself
Test: cryo-EM structure; TMEM16F in MSP2N2-SoyPC nanodiscs with PIP2 and 4 mM CaCl2, without drug or with 50 uM niclosamide or 100 uM 1PBC; no C2 symmetry imposed

B1: TMEM16F (natural protein, UniProt Q6P9J9 1-911, looked up)
chain: MQMMTRKVLLNMELEEDDDEDGDIVLENFDQTIVCPTFGSLENQQDFRTPEFEEFNGKPDSLFFTDGQRRIDFILVYEDESKKENNKKGTNEKQKRKRQAYESNLICHGLQLEATRSVSDDKLVFVKVHAPWEVLCTYAEIMHIKLPLKPNDLKTRSPFGNLNWFTKVLRVNESVIKPEQEFFTAPFEKSRMNDFYILDRDSFFNPATRSRIVYFILSRVKYQVMNNVNKFGINRLVSSGIYKAAFPLHDCRFNYESEDISCPSERYLLYREWAHPRSIYKKQPLDLIRKYYGEKIGIYFAWLGYYTQMLLLAAVVGVACFLYGYLDQDNCTWSKEVCDPDIGGQILMCPQCDRLCPFWRLNITCESSKKLCIFDSFGTLIFAVFMGVWVTLFLEFWKRRQAELEYEWDTVELQQEEQARPEYEAQCNHVVINEITQEEERIPFTTCGKCIRVTLCASAVFFWILLIIASVIGIIVYRLSVFIVFSTTLPKNPNGTDPIQKYLTPQMATSITASIISFIIIMILNTIYEKVAIMITNFELPRTQTDYENSLTMKMFLFQFVNYYSSCFYIAFFKGKFVGYPGDPVYLLGKYRSEECDPGGCLLELTTQLTIIMGGKAIWNNIQEVLLPWVMNLIGRYKRVSGSEKITPRWEQDYHLQPMGKLGLFYEYLEMIIQFGFVTLFVASFPLAPLLALVNNILEIRVDAWKLTTQFRRMVPEKAQDIGAWQPIMQGIAILAVVTNAMIIAFTSDMIPRLVYYWSFSIPPYGDHTYYTMDGYINNTLSVFNITDFKNTDKENPYIGLGNYTLCRYRDFRNPPGHPQEYKHNIYYWHVIAAKLAFIIVMEHIIYSVKFFISYAIPDVSKITKSKIKREKYLTQKLLHESHLKDLTKNMGIIAERIGGTVDNSVRPKLE
modifications: glycans on the extracellular loops
notes: Sample in lipid nanodiscs (MSP2N2, SoyPC) with PIP2 and 4 mM CaCl2; also called mTMEM16F; TMEM16F dimer; source: HEK293s cells, extracted and purified in DDM/CHS, reconstituted in MSP2N2-SoyPC nanodiscs, FPLC
  stoichiometry N: 2
